Earlier results on one substance are cited in paper PMC7739374.

The target of this series is Sos (Homo sapiens) (UniProt Q07889).

What is called Kd is a measure of binding affinity in units of concentration. Consider Ras (from UniProt P01112), for which the Kd is 28 µM.
